Where no end group is shown, it is not given here. The star is where a group is joined. Palmitoyl = CCCCCCCCCCCCCCCC(=O)*
B1: rmAb 460 IgG1 (antibody, V domains shown)
VH: EVQLQQSGAELVKPGASVKLSCTASGFNIKDTYMHWVKQRPEQGLEWIGRIDPANGNTKYDPKFQGKATITADTSSNTAYLQLSSLTSEDTAVYFCTRSRGYFGNYYFDYWGQGTTLTVSS
VL: QIVLTQSPAVMSASPGERVTMTCSASSSVSYMYWYQQKPRSSPKPWIYLTSNLASGVPARFSGSGSGTSYSLTISSMEAEDAATYYCQQWSSIPLTFGAGTKLELK
B2: N-terminally palmitoylated MPER peptide (peptide)
peptide: Palmitoyl-DLLELDKWASLWNWFNITNWLWYIK
B3: rmAb 235 IgG1 (antibody, V domains shown)
VH: QVQLQQSGTDLVRPGTSVKVSCKASGYAFTTYFIEWVKQRPGQGLEWIGVINPGSGIPNYNEMFKGKATLTADKSSSTAYLHLSSLTSDDSAVYFCARAPYYYGSSYYYFDVWGAGTTVTVSS
VL: DIVMSQSPSSLAVSVGEKVTMSCKSSQSLLYSSNQKNYLAWYQQKPGQSPKLLIYWASTRDSGVPDRFTGSGSGTDFTLTISSVKAEDLAVYCCQQYYNYPFTFGAGTKLEIK

Experiments:
Test in all cases: SPR; liposome-bound MPER
[1] = biological target: B2
203 = biological target: 203
274 = biological target: 274
484 = biological target: 484
275 = biological target: 275

Binder | Kd [1] [nM] | Kd 203 [nM] | Kd 274 [nM] | Kd 484 [nM] | Kd 275 [nM]
B1 | 14 | – | – | – | –
B2 | – | 29 | 63 | 5.5 | 18
B3 | 11 | – | – | – | –
